# In patent US20220185900A1:
# Biological target: human RET on cells (MCF7/SRE-Luc; HEK293/hGFRα3/hRET/SRE-Luc; HEK293/hGFRα1/hRET/SRE-Luc) (human), P07949
# Experiment: cell-based or functional assay
Binder,293/hGFRα3/hRET SRE-luc % Blocking,293/hGFRα3/hRET/SRE-Luc IC50,"Internalization (% H4H8087P), HEK293/hGFRa1/hRET/SRE-Luc cells, 37 C",MCF7/SRE-Luc % Activation,MCF7/SRE-Luc Avg % Blocking,MCF7/SRE-luc Avg. IC50,"luciferase activity in MCF7/SRE-Luc, % of the levels observed with GDNF"
"H4H8085P (antibody, human IgG4, V domains shown) VH: QVQLVESGGGVVQPGRSLRLSCTASGFTFDNYGMHWVRQAPGKGLEWVAVISYDGSNTFYADSVKGRFTISRDNSKNALYLQMNSLRAEDTAVYYCAKDLEFDILIGYPFDSWGRGTLVTVSS VL: DIQLTQSPSFLSASVGDRVTITCWASQDISRYLAWYQQKPGKAPNLLIYAASTLQSGVPSRFSGSGSGTEFTLTINSLQPEDFATYYCQQLFSYPRTFGQGTKVEIK",72%,127 nM,,47%,0%,,50%
"H4H7086N (antibody, human IgG4, V domains shown) VH: QVQLVESGGGVVQPGRSLRLSCVVSGFTFSNYGMHWVRQGPGRGLEWLALIWYDGSDKYYAESVRGRFTISRDNSKNTVYLQMNSLRAEDTAMYYCTRDRIFDYWGQGTLVTVSS VL: AIQMTQSPSSLSASVGDRVTITCRASQDIRNDLGWYQHNPGKAPNLLIYAASTLQIGVPSRFRGSGSGTDFTLTISSLQPEDFATYYCLQDFDYPLSFGGGTKVEIR",,,59%,,,,
"H4H8083P (antibody, human IgG4, V domains shown) VH: QVQLVESGGGVVQPGRSLRLSCAASGFTFNNYVMHWVRQAPGKGLEWVALIWYDGSNKYYADSVKGRFTISRDNSKNALNLQMNSLRAEDTAVYFCARVSIAARNYYYGGLDVWGQGTTVTVSS VL: EIVLTQSPGTLSLSPGERATLSCRASQSVSSTYLAWYQQKPGQAPRLLIYGASSRATGIPDRFSGSGSGTDFTLTISRLEPEDFAVYYCQHYGGSPLTFGGGTKVEIK",81%,57 nM,,0%,68%,> 100 nM,

# Second part, the binder after the results:
293/hGFRα3/hRET SRE-luc % Blocking,293/hGFRα3/hRET/SRE-Luc IC50,"Internalization (% H4H8087P), HEK293/hGFRa1/hRET/SRE-Luc cells, 37 C",MCF7/SRE-Luc % Activation,MCF7/SRE-Luc Avg % Blocking,MCF7/SRE-luc Avg. IC50,"luciferase activity in MCF7/SRE-Luc, % of the levels observed with GDNF",Binder
100%,0.25 nM,100%,0%,100%,0.25 nM,,"H4H8087P (antibody, human IgG4, V domains shown) VH: QVQLVESGGGVVQPGRSLRLSCAASGFSFSSYGMHWVRQAPGKGLEWVAVMWYDGSNEYYADSVKGRFIISRDNSKSTLYLEMNSLRAEDTALYYCAREDWDEGYYYGMDVWGQGTTVTVSS VL: DIQMTQSPSSLFASVGDRVTITCRASQDIRYDLGWYQQKPGKAPKRLIYASSILESGVPSRFSGSGSGTEYTLTISTLQSEDFAIYYCLQHNSFPWTFGQGTKVEIK"
94%,2.1 nM,,0%,100%,10.4 nM,,"H4H8084P (antibody, human IgG4, V domains shown) VH: QVQLVESGGGVVQPGRSLRLSCEASGFTFRNYGMHWVRQAPGKGLDWVSTIYYDGSDEYYSDSVKGRFTISRDNSKNTLYLQMNSLRAEDTAVYYCARDPPSFRYFDYWGQGTLVTVSS VL: DIQMTQSPSTLSASVGDRVTITCRASQSIRSWLTWYQQKPGKAPKVLIYKASTLERGVPSRFSGSGSGTEFTLTISSLQPEDFATYYCHQYSSYSYTFGQGTKLEIK"
